Data published in patent US20090192084A1.

How the values were obtained:
[1] = biological target: BTB/POZ domain-containing protein 2. BTBD2 (human) (UniProt Q9BX70); experiment: Flag co-IP, MudPIT MS, DMSO
[2] = biological target: Cullin 1 (human) (UniProt Q13616); experiment: Flag co-IP, MudPIT MS, DMSO
[3] = biological target: Kelch repeat and BTB domain-containing protein 7, KBTB7 (human) (UniProt Q8WVZ9); experiment: Flag co-IP, MudPIT MS, DMSO
[4] = biological target: RING finger protein 12. RLIM (human) (UniProt Q9NVW2); experiment: Flag co-IP, MudPIT MS, DMSO
[5] = biological target: Ubiquitin conjugation factor E4 B, UBE4B (Ufd2ortholog) (human) (UniProt O95155); experiment: Flag co-IP, MudPIT MS, DMSO
[6] = biological target: E3 ubiquitin-protein ligase1-HUWE1 (human) (UniProt Q7Z6Z7); experiment: Flag co-IP, MudPIT MS, MG132
[7] = biological target: E6AP ubiquitin-protein ligase, UBE3A (human) (UniProt Q05086); experiment: Flag co-IP, MudPIT MS, MG132
[8] = biological target: UBR2 (human) (UniProt Q8IWV8); experiment: Flag co-IP, MudPIT MS, MG132
[9] = biological target: gp78 (human) (UniProt Q9UKV5); experiment: Flag co-IP, MudPIT MS, MG132
[10] = biological target: Bromodomain and WD-repeat domain-containing protein 1. WDR9 (human) (UniProt Q9NSI6); experiment: Flag co-IP, MudPIT MS, DMSO
[11] = biological target: Bromodomain and WD-repeat domain-containing protein 2, WDR 1 I (human) (UniProt Q9BZH6); experiment: Flag co-IP, MudPIT MS, DMSO
[12] = biological target: Bromodomain and WD-repeat domain-containing protein 3, BRWD3 (human) (UniProt Q6RI45); experiment: Flag co-IP, MudPIT MS, DMSO
[13] = biological target: Cullin 4A (human) (UniProt Q13619); experiment: Flag co-IP, MudPIT MS, DMSO
[14] = biological target: Cullin 4B (human) (UniProt Q13620); experiment: Flag co-IP, MudPIT MS, DMSO
[15] = biological target: Elongin B (human) (UniProt Q15370); experiment: Flag co-IP, MudPIT MS, DMSO
[16] = biological target: Kelch domain-containing protein 2, KLDC2 (human) (UniProt Q9Y2U9); experiment: Flag co-IP, MudPIT MS, DMSO
[17] = biological target: SKP1 (human) (UniProt P63208); experiment: Flag co-IP, MudPIT MS, DMSO
[18] = biological target: E3 ubiquitin-protein ligase Topors (human) (UniProt Q9NS56); experiment: Flag co-IP, MudPIT MS, MG132
[19] = biological target: Elongin B (human) (UniProt Q15370); experiment: Flag co-IP, MudPIT MS, MG132
[20] = biological target: Elongin C (human) (UniProt Q15369); experiment: Flag co-IP, MudPIT MS, MG132
[21] = biological target: Kelch repeat and BTB domain-containing protein 7, KBTB7 (human) (UniProt Q8WVZ9); experiment: Flag co-IP, MudPIT MS, MG132
[22] = biological target: Von Hippel-Lindau disease tumor suppressor, VHL (human) (UniProt P40337); experiment: Flag co-IP, MudPIT MS, MG132
[23] = biological target: Elongin C (human) (UniProt Q15369); experiment: Flag co-IP, MudPIT MS, DMSO
[24] = biological target: Galectin-3 binding protein. LG3BP (human) (UniProt Q08380); experiment: Flag co-IP, MudPIT MS, DMSO
[25] = biological target: WD repeat protein Anti homolog. WDR68 (human) (UniProt P61962); experiment: Flag co-IP, MudPIT MS, DMSO
[26] = biological target: T1, endogenous UFD1 (human) (UniProt Q92890); experiment: Flag co-IP, 293 cells, MudPIT MS
T1 sequence (looked up): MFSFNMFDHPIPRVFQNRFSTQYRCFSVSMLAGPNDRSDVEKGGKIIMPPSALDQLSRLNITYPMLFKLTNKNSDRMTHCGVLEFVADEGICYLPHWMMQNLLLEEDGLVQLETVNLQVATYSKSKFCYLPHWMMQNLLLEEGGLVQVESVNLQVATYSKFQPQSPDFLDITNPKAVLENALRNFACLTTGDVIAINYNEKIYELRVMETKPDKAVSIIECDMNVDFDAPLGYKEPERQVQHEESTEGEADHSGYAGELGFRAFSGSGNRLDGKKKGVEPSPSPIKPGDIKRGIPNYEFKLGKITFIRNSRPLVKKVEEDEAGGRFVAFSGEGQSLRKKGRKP

Chain of BTB/POZ domain-containing protein 2. BTBD2 (human) (Q9BX70 whole entry, the tested form may be a part): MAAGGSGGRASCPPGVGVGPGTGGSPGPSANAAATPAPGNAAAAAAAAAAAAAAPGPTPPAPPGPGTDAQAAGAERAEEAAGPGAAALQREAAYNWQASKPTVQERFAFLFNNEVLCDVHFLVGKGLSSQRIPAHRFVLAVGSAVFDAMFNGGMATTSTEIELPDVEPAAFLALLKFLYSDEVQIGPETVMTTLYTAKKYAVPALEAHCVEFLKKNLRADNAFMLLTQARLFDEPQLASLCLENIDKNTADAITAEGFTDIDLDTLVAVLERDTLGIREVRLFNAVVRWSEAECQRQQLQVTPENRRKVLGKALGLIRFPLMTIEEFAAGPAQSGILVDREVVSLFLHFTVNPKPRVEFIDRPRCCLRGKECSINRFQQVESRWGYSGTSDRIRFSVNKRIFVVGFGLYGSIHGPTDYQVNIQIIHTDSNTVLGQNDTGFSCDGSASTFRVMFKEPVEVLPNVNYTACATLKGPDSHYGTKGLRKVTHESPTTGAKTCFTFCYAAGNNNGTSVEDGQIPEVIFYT
Chain of RING finger protein 12. RLIM (human) (Q9NVW2 whole entry): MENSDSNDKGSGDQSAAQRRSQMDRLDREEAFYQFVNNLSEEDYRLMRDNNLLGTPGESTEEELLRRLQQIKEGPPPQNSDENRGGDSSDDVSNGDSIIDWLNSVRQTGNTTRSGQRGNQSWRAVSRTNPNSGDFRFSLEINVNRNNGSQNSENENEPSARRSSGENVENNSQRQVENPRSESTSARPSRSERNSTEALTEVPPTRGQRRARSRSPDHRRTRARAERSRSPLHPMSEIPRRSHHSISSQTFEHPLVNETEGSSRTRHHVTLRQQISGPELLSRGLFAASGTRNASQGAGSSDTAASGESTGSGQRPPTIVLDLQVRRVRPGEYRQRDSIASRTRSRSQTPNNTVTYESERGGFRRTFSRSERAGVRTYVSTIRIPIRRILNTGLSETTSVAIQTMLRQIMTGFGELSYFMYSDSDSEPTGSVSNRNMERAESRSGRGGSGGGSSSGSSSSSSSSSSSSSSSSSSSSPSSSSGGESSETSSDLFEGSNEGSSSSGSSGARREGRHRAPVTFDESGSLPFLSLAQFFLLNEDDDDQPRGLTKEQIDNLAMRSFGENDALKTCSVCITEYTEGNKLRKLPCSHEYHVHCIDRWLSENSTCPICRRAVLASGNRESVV
Chain of Cullin 4A (human) (Q13619 whole entry): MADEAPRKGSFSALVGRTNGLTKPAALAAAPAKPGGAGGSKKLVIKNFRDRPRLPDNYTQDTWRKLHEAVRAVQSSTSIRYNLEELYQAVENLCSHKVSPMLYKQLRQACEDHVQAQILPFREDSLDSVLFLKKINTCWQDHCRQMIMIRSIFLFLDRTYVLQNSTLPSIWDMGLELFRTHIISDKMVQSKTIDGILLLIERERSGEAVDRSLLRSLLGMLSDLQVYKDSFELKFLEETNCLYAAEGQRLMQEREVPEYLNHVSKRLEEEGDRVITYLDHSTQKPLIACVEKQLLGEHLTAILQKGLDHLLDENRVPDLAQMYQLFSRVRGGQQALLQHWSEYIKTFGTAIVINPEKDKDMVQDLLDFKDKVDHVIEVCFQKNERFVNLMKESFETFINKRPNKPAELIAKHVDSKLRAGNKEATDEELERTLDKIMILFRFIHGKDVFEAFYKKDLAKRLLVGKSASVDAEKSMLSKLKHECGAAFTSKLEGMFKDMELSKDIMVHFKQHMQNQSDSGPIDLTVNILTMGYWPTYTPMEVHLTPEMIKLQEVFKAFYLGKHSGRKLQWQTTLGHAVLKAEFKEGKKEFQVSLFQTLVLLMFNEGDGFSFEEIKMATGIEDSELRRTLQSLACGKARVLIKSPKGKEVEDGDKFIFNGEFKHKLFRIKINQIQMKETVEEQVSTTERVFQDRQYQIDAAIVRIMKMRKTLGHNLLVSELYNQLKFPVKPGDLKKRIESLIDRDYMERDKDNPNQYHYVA
Chain of E3 ubiquitin-protein ligase Topors (human) (Q9NS56 whole entry): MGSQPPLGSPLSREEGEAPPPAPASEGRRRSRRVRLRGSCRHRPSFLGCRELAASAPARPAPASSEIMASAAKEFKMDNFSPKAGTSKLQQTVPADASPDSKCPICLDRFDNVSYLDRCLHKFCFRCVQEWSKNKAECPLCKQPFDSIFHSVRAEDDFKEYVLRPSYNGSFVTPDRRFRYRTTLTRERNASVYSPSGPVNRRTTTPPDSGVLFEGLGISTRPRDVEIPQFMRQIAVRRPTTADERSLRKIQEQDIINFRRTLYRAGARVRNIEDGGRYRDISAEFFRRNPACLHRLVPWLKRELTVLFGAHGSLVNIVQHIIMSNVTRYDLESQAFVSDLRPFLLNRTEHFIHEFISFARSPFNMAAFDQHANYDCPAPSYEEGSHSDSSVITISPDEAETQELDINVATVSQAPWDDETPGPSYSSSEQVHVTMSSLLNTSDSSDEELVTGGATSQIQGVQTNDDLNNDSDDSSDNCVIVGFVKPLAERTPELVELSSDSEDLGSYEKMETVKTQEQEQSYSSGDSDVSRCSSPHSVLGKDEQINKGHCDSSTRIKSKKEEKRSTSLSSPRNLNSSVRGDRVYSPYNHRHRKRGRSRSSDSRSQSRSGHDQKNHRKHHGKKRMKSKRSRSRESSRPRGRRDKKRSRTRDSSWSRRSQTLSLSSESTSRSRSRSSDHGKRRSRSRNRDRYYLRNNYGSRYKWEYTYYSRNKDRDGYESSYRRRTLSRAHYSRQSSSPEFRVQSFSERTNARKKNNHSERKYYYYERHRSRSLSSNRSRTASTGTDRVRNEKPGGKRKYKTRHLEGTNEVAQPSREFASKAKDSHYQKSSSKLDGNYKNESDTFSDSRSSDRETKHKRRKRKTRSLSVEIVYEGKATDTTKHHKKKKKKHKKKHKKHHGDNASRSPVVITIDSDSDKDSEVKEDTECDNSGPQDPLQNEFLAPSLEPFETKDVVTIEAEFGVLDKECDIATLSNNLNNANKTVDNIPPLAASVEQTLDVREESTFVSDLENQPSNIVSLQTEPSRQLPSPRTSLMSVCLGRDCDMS
Chain of WD repeat protein Anti homolog. WDR68 (human) (P61962 whole entry): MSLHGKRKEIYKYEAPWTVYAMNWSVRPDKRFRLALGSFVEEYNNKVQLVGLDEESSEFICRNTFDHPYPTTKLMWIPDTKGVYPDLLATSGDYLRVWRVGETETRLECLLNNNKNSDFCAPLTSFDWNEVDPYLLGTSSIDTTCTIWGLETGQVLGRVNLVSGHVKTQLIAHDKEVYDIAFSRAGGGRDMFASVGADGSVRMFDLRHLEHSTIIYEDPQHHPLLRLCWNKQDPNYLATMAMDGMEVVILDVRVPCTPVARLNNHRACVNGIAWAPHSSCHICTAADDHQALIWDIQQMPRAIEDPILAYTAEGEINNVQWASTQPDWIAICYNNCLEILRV
Chain of Cullin 1 (human) (Q13616 whole entry, the tested form may be a part): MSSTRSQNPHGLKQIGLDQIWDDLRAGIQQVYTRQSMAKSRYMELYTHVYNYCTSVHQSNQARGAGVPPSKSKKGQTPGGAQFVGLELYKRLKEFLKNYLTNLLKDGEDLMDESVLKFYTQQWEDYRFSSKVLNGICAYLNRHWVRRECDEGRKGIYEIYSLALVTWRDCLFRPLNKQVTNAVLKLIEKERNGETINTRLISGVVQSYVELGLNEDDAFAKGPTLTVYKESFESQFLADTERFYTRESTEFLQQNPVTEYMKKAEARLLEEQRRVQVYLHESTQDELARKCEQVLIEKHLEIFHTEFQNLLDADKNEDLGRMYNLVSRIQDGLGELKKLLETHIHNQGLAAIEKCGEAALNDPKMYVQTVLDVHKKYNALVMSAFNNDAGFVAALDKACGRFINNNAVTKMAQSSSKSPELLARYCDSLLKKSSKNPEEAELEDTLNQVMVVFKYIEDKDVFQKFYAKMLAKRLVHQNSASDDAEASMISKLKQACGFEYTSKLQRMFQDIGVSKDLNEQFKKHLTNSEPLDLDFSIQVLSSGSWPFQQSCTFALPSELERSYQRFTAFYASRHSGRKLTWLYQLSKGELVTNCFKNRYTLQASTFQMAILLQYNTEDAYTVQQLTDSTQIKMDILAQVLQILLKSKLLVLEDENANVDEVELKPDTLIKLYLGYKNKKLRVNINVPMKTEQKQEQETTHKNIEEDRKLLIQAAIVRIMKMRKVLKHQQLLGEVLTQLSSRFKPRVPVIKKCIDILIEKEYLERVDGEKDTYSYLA
Chain of Kelch repeat and BTB domain-containing protein 7, KBTB7 (human) (Q8WVZ9 whole entry, the tested form may be a part): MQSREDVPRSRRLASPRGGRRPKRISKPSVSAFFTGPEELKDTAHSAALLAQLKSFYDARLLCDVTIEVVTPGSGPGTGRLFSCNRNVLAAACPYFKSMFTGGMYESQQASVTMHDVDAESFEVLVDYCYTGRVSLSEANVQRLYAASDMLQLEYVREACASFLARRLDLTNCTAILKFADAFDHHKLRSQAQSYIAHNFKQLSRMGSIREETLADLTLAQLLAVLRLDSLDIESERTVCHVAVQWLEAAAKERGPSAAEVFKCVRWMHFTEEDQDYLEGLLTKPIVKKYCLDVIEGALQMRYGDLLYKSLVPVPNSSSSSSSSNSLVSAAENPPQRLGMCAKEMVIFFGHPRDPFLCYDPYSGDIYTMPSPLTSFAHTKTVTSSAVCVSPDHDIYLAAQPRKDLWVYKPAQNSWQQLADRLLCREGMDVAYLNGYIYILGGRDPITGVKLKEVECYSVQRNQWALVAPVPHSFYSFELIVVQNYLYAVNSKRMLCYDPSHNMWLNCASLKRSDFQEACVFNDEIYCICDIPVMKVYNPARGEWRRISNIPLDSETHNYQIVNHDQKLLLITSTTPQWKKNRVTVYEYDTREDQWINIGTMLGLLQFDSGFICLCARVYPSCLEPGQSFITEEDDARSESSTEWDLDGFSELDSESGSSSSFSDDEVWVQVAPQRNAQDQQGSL
Chain of Elongin B (human) (Q15370 other isoform, or with tags, fused parts or gaps limits assumed): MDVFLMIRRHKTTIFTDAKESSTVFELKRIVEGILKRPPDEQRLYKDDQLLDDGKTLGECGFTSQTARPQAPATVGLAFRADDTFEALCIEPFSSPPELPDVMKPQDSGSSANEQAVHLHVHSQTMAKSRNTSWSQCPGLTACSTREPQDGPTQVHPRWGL

Flag-SAKS1 (from UniProt Q04323 1-297)
abundance factor (AF) [1]: 2.9 | sequence count [1]: 2 | spectrum count [1]: 2 | abundance factor (AF) [2]: 6.5 | sequence count [2]: 5 | spectrum count [2]: 7 | abundance factor (AF) [3]: 2.1 | sequence count [3]: 2 | spectrum count [3]: 2 | abundance factor (AF) [4]: 3.5 | sequence count [4]: 2 | spectrum count [4]: 3 | abundance factor (AF) [5]: 1.1 | sequence count [5]: 2 | spectrum count [5]: 2 | abundance factor (AF) [6]: 0.6 | sequence count [6]: 4 | spectrum count [6]: 7 | abundance factor (AF) [7]: 2.2 | sequence count [7]: 4 | spectrum count [7]: 5 | abundance factor (AF) [8]: 1.3 | sequence count [8]: 3 | spectrum count [8]: 6 | abundance factor (AF) [9]: 3.6 | sequence count [9]: 3 | spectrum count [9]: 6

Flag-UBXD7 (from UniProt O94888 1-489)
abundance factor (AF) [10]: 2.2 | sequence count [10]: 3 | spectrum count [10]: 4 | abundance factor (AF) [11]: 2.1 | sequence count [11]: 2 | spectrum count [11]: 2 | abundance factor (AF) [12]: 1.4 | sequence count [12]: 2 | spectrum count [12]: 2 | abundance factor (AF) [13]: 9.8 | sequence count [13]: 5 | spectrum count [13]: 6 | sequence count [14]: 7 | spectrum count [14]: 9 | abundance factor (AF) [15]: 16 | sequence count [15]: 2 | spectrum count [15]: 2 | abundance factor (AF) [16]: 9.3 | sequence count [16]: 2 | spectrum count [16]: 3 | abundance factor (AF) [17]: 30.7 | sequence count [17]: 3 | spectrum count [17]: 4 | abundance factor (AF) [18]: 0.6 | sequence count [18]: 3 | spectrum count [18]: 3 | abundance factor (AF) [19]: 9.7 | sequence count [19]: 5 | spectrum count [19]: 7 | abundance factor (AF) [20]: 20 | sequence count [20]: 8 | spectrum count [20]: 10 | abundance factor (AF) [21]: 1 | sequence count [21]: 3 | spectrum count [21]: 3 | abundance factor (AF) [22]: 2.1 | sequence count [22]: 2 | spectrum count [22]: 2

Flag-UBXD8 (from UniProt Q96CS3 1-445)
abundance factor (AF) [23]: 7 | sequence count [23]: 2 | spectrum count [23]: 5 | abundance factor (AF) [24]: 0.8 | spectrum count [24]: 3 | abundance factor (AF) [25]: 0.9 | sequence count [25]: 2 | spectrum count [25]: 2 | abundance factor (AF) [6]: 0.3 | sequence count [6]: 6 | spectrum count [6]: 6 | abundance factor (AF) [7]: 0.5 | sequence count [7]: 2 | spectrum count [7]: 2 | abundance factor (AF) [20]: 5.7 | sequence count [20]: 2 | spectrum count [20]: 3 | abundance factor (AF) [8]: 0.2 | sequence count [8]: 2 | spectrum count [8]: 2 | abundance factor (AF) [9]: 1.9 | sequence count [9]: 4 | spectrum count [9]: 6 | sequence count [26]: 7 | sequence coverage [26]: 29.4% | spectrum count [26]: 82
